Experimental findings from paper PMC9504884, “Functional Interactions of Kluyveromyces lactis Telomerase Reverse Transcriptase with the Three-Way Junction and the Template Domains of Telomerase RNA” are described below.

What all share (assay): EMSA; 1 nM RNA, tRNA competitor; 25 mM Tris-HCl pH 7.5, 50 mM KCl, 1 mM MgCl2, 1 mM DTT, 10% glycerol, 0.1% Triton, 0.5 mg/mL BSA, 1.7 ng/uL yeast tRNA, 1 nM RNA probe; 15 min on ice then 10 min room temperature; gel at 6 C
One data set deals with T1, klTRBD klEst2 171-422 (Kluyveromyces lactis, UniProt Q6CSS0 171-422).
T1 sequence: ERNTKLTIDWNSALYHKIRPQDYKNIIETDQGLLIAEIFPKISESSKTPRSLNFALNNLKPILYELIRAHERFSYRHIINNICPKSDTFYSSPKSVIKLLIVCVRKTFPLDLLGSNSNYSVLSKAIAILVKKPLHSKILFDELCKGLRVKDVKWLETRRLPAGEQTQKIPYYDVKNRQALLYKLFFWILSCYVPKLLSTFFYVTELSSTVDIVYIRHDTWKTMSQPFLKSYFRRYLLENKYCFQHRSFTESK
As to conditions: protein: recombinant; tags: N-terminal His-SUMO, TEV-cleaved; label: 5'-32P when probe; three-way junction.

Data set [1] deals with T2, klEst2 full-length (TERT) (Kluyveromyces lactis, UniProt Q6CSS0 1-861).
T2 sequence: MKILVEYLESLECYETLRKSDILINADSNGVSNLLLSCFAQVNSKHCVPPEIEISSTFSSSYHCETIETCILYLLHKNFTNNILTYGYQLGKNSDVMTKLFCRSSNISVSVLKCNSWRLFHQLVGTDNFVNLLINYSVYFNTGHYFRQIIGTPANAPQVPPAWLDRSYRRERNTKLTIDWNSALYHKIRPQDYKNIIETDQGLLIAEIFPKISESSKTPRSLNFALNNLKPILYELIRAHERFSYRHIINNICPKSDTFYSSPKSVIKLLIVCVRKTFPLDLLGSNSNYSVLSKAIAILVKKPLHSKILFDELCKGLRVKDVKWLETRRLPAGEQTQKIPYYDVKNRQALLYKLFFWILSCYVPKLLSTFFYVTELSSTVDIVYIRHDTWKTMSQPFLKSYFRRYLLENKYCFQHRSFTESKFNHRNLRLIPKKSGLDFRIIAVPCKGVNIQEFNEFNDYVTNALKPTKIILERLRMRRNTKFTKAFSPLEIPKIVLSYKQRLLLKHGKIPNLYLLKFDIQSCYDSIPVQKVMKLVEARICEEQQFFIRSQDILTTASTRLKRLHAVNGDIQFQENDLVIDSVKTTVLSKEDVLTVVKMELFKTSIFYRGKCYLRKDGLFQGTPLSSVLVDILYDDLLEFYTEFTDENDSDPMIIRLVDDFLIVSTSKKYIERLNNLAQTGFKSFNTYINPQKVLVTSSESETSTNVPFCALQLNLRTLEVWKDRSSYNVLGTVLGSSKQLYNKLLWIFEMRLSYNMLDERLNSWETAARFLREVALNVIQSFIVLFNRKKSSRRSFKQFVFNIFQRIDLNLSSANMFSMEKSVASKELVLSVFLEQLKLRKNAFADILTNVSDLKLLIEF
As to conditions: protein: recombinant; tags: expressed in E. coli; His-SUMO tag described for the TRBD constructs, tag of full-length not clearly stated; label: 5'-32P when probe; three-way junction.

In another data set the target is T3, klTRBD klEst2 171-404 (Kluyveromyces lactis, UniProt Q6CSS0 171-404).
T3 sequence: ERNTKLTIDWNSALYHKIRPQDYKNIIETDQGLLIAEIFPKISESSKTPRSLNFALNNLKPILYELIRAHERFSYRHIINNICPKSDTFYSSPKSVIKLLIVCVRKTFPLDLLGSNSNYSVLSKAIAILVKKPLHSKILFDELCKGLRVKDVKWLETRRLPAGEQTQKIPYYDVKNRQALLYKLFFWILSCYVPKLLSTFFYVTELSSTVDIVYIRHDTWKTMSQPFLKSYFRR
As to conditions: protein: recombinant; tags: N-terminal His-SUMO, TEV-cleaved; label: 5'-32P when probe; three-way junction.

B1: minTWJ (structured_RNA)
RNA: GGGUUGUCCUAUGGUGGAUCUUGAAAAGACCCUCGGAAGACAGGGCCACAUCGACGAUCAAUAUUUUGCCGUGAGGCUUAUAUGUCACCAUGGCAUGCAGCCC
With B1, the binding result is “no binding” in the data set with klTRBD klEst2 171-422, “binds” in data set [1] and “no binding” with klTRBD klEst2 171-404.
